Experimental data: the supplement of paper PMC10567573

B1: CLPTM1 (parent)
chain: LGCYAVYSLLYLEHKGWYSWVLSM
B2: RAB40A (parent)
chain: NWLGRPSKVLSLQDLCCRTIVSCT

Variants of: B1
Experiment: protein stability index of a GFP-peptide fusion (GPS, HEK-293T) (PSI 1-6); higher = more stable
Conditions: c terminus: a fixed tail appended
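Also: lentivirally expressed fusions sorted by FACS into six bins by GFP to DsRed ratio, PSI derived from sequencing read proportions per bin multiplied by bin number.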

Protein stability index, by site and new letter:
L1: E 3.05; S 3.4; C 2.92; G 2.73; T 3.54; Y 3.77; N 3.26; Q 4.62; V 2.65; I 3.58; M 3.26; F 2.55; R 3.05; W 2.96; D 2.85; H 2.19
L9: E 2.13; P 4.54; I 2.15; C 2.03; Q 2.67; K 2.65; W 2.7; G 1.77; R 2.18; T 1.75; D 3.48; Y 2.36; S 2.77; F 4.07; M 2.92; V 1.94; H 1.71; N 3.39
G2: M 3.58; I 2.87; E 3.26; Y 3.37; P 2.76; W 2.07; T 3.4; S 1.47; L 3.57; F 2.72; N 3.83; V 2.32; R 3.1; D 3.19; Q 3.29
E13: D 2.51; F 3.1; H 3.66; I 4.56; Y 2.12; P 3.78; A 1.11; T 3.83; L 3.4; M 2.58; C 2.64; G 1.95
L10: R 1.94; A 2.39; M 2.82; N 3.35; T 2.74; Q 3.9; G 3.1; F 3.57; C 2.87; D 3.21; I 3.43; K 3.39; W 2.32; Y 2.5; H 2.84; S 1.76; P 2.45
H14: Q 3.42; P 2.6; T 3.37; I 2.44; S 2.43; N 2.58; A 3.68; G 2.4; W 3.16; V 2.52; Y 3.4; R 2.22; D 2.41; M 2.53; L 2.4; C 2.45; F 3.12
V6: W 1.84; F 3.45; S 2.76; I 3.34; T 2.61; A 3.13; D 3.58; N 2.73; H 2.31; R 2.3; P 2.49; L 3.28; M 2.22; G 2.72; E 2.84; K 2.83; C 4.28
C3: T 2.52; M 3.15; N 3.61; P 2.26; F 2.37; L 3.21; I 2.62; W 2.24; G 2.35; V 3.36; K 2.74; R 1.63; S 3.55; E 3.26; D 2.59; Y 3.21; H 2.58
Y4: W 2.19; H 2.69; V 3.14; M 3.4; Q 2.4; C 3.33; N 3.2; L 3.04; A 4.36; P 3.14; S 3.75; I 1.89; G 3.18; T 3.11; K 3.58; R 2.91; D 1.9; F 2.33
K15: P 3.92; A 1.32; H 3.75; G 1.81; S 2.73; M 3.9; Y 2.57; N 3.11; T 4.26; L 3.23; Q 1.25; I 2.89; W 2.46; F 2.41; V 2.65; C 2.9
L12: F 3.31; S 2.02; Q 3.59; E 3.57; W 2.4; N 4.59; V 2.89; C 2.68; G 3.12; Y 2.43; H 2.99; I 3.36; P 3.25; D 2.74; M 4.09; R 4.16; K 3.11; T 2.14
Y7: H 2.13; C 3.42; F 3.72; P 3.71; M 3.54; E 2.54; I 3.09; K 2.19; R 2.82; D 3.78; W 3.23; Q 2.39; V 3.4; N 5.04
Y11: H 2.09; T 2.69; M 2.05; G 4.08; E 3.13; N 2; K 2.63; S 1.87; P 2.2; D 2.36; I 3; W 2.68; Q 3.22; F 3.26
S8: N 4.1; A 2.25; G 4.38; E 1.27; I 3.15; T 2.09; H 2.55; W 1.43; V 1.96; K 3.64; C 2.96; P 3.57
G16: V 2.84; A 4.05; N 2.7; P 2.75; R 1.42; H 3.98; F 2; E 2.88; T 2.75; D 2.47; M 2.67
W17: P 2.44; N 4.13; G 2.14; L 2.96; C 2.36; F 1.55; E 2.81; K 3.85; R 2.16; D 2.76; I 2.71; A 3.3
A5: K 2.91; F 3.69; R 2.43; T 2.57; S 3.5; I 3.28; W 4.06; H 2.82; C 3.34; M 2; E 3.12; L 4.56; N 4.03; D 2.12

Variants of: B2
Experiment: as above
Conditions: c terminus: a fixed tail appended

Protein stability index: each site, then its substitutions
S22: A 2.23; H 2.26; D 2.83; M 2.61; L 2.31; K 2.75; N 2.69; Q 2.59; E 2.57; P 2; W 2.04; G 2.57; V 1.77; I 1.88; C 2.59; R 2.77; T 2.4; Y 1.95; F 2.47
T24: V 2.28; N 2.87; A 2.5; C 2.07; H 2.64; R 2.89; G 2.6; K 3.2; I 1.58; L 2.31; Y 2.13; E 2.58; P 3.02; W 2.2; S 2.62; D 2.85; Q 3.19; M 2.27; F 2.63
C23: W 2.67; Y 2.35; A 2.74; Q 3.46; R 2.92; L 2.37; N 2.93; F 2.33; P 2.68; T 2.66; D 3.12; H 2.69; K 2.92; I 2.33; V 2.21; G 3.28; M 2.33; S 2.95; E 2.8
V21: E 1.88; C 2.41; F 2.43; R 3.04; A 2.64; M 2.66; I 2.31; D 3.02; Q 2.8; Y 2.08; W 2.46; H 2.44; N 2.8; T 2.58; S 2.77; L 2.04; K 2.55; G 2.64; P 2.89
